Data on one protein can be found in patent US20110251255.

The target in this series is recombinant cofilin (His-tagged fusion protein of human cofilin), P23528.
recombinant cofilin (His-tagged fusion protein of human cofilin), P23528, sequence (P23528 whole entry, the tested form may be a part): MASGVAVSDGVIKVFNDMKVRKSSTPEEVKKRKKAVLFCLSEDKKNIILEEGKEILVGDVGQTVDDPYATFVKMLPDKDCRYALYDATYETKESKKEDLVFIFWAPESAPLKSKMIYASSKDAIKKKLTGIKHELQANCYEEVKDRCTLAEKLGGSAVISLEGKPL

B1: LIM kinase 1 (protein)
chain: MRLTLLCCTWREERMGEEGSELPVCASCGQRIYDGQYLQALNADWHADCFRCCDCSASLSHQYYEKDGQLFCKKDYWARYGESCHGCSEQITKGLVMVAGELKYHPECFICLTCGTFIGDGDTYTLVEHSKLYCGHCYYQTVVTPVIEQILPDSPGSHLPHTVTLVSIPASSHGKRGLSVSIDPPHGPPGCGTEHSHTVRVQGVDPGCMSPDVKNSIHVGDRILEINGTPIRNVPLDEIDLLIQETSRLLQLTLEHDPHDTLGHGLGPETSPLSSPAYTPSGEAGSSARQKPVLRSCSIDRSPGAGSLGSPASQRKDLGRSESLRVVCRPHRIFRPSDLIHGEVLGKGCFGQAIKVTHRETGEVMVMKELIRFDEETQRTFLKEVKVMRCLEHPNVLKFIGVLYKDKRLNFITEYIKGGTLRGIIKSMDSQYPWSQRVSFAKDIASGMAYLHSMNIIHRDLNSHNCLVRENKNVVVADFGLARLMVDEKTQPEGLRSLKKPDRKKRYTVVGNPYWMAPEMINGRSYDEKVDVFSFGIVLCEIIGRVNADPDYLPRTMDFGLNVRGFLDRYCPPNCPPSFFPITVRCCDLDPEKRPSFVKLEHWLETLRMHLAGHLPLGPQLEQLDRGFWETYRRGESGLPAHPEVPD
As for B1, the “in vitro phosphorylation of recombinant cofilin (immune complex kinase assay, autoradiography)” value was “immunoprecipitated LIMK1 (FIG. 2, a and b) from PC3 cells was capable of phosphorylating recombinant cofilin (FIG. 2c)”.
